The record followed here is US20240424060A1 (DOMPE FARMACEUTICI, published 2024).

Experiment [1] addresses p75^NTR receptor immobilized on the SPR sensor surface. The experiment can be described thus: SPR, receptor immobilized, steady-state 1:1 fit (KDeq). A general note: In SPR one partner is held on a chip, and binding of the other changes the refractive index at the surface.
Experiment [2] addresses TrKA receptor immobilized on the SPR sensor surface. The description is as above.
Experiment [3] deals with T1, rhNGF-1: recombinant human NGF from R&D Systems Inc (product code: 256-GF/CF), manufactured in a mouse … (human, UniProt P01138 122-241; P01138 122-240; P01138 122-239; P01138 122-238).
T1 construct: A commercial MIXTURE of isoforms, not a complex of four chains: the four entries are alternative forms
The experiment can be described thus: SPR, receptor immobilized, kinetic Kd (Koff/Kon).

For experiment [4], the target named is T2, Recombinant human NGF (rhNGF) having an aminoacid sequence of 118 aminoacids (rhNGF-118) (human, UniProt P01138 122-239).
T2 construct: Made in E. coli from proNGF mutant SP174-101
The experiment can be described thus: SPR, receptor immobilized, kinetic Kd (Koff/Kon).

The target of experiment [5] is T1, rhNGF-1: recombinant human NGF from R&D …. The experiment can be described thus: SPR, receptor immobilized, steady-state 1:1 fit (KDeq).
Experiment [6] has as its target T2, Recombinant human NGF (rhNGF) having an …. The description is as above.
In experiment [7] the target is T1, rhNGF-1: recombinant human NGF from R&D …. In words: SPR, receptor immobilized, kinetic fit (BIA evaluation).
In experiment [8] the target is T2, Recombinant human NGF (rhNGF) having an …. The experiment is described as above.

T2 sequence (P01138 122-239 limits assumed): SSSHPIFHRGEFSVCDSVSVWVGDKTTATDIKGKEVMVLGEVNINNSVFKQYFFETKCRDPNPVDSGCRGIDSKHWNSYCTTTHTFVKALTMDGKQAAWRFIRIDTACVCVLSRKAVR
T1 sequence (P01138 122-241 limits assumed, chain 1 of 4): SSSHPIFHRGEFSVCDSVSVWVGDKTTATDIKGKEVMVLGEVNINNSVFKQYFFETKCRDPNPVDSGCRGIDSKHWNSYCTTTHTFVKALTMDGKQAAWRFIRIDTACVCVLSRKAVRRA
T1 sequence (P01138 122-240 limits assumed, chain 2 of 4): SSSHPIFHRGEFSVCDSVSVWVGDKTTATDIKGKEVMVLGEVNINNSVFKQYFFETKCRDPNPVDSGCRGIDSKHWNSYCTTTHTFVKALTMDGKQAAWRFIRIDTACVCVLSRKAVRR
T1 sequence (P01138 122-239 limits assumed, chain 3 of 4): as the sequence (P01138 122-239 limits assumed) above
T1 sequence (P01138 122-238 limits assumed, chain 4 of 4): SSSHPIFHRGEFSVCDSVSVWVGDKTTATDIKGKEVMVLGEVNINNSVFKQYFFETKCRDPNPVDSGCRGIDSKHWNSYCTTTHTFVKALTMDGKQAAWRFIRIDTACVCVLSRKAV

For orientation: Kd means a measure of binding affinity in units of concentration. Consider “rhNGF2: recombinant human NGF from Active Bioscience (product code 1745.955), manufactured in CHO cells (from UniProt P01138 122-238) (ligand)”, for which the Kd in experiment [1] came to 15.7 nM; in experiment [2] it was 3.85 nM.
On the same counts, the results for “rhNGF3: recombinant human NGF from Sino Biological (product code: 11050-HNAC), manufactured in CHO cells (from UniProt P01138 122-238) (ligand)” are 39.1 nM and 6 nM.

B1: TrKA receptor immobilized on the SPR sensor surface (receptor)
chain: AAPCPDACCPHGSSGLRCTRDGALDSLHHLPGAENLTELYIENQQHLQHLELRDLRGLGELRNLTIVKSGLRFVAPDAFHFTPRLSRLNLSFNALESLSWKTVQGLSLQELVLSGNPLHCSCALRWLQRWEEEGLGGVPEQKLQCHGQGPLAHMPNASCGVPTLKVQVPNASVDVGDDVLLRCQVEGRGLEQAGWILTELEQSATVMKSGGLPSLGLTLANVTSDLNRKNVTCWAENDVGRAEVSVQVNVSFPASVQLHTAVEMHHWCIPFSVDGQPAPSLRWLFNGSVLNETSFIFTEFLEPAANETVRHGCLRLNQPTHVNNGNYTLLAANPFGQASASIMAAFMDNPFEFNPEDPIPVSFSPVDTNSTSGDPVEKKDETPFGVSVAVG
The koff is the first-order rate constant of dissociation. As usually defined, the kon is the rate constant with which the complex forms. B1: the Kd in experiment [3] turned out to be 0.0792 nM; in experiment [4] it was 0.38 nM; in experiment [5] it was 3.65 nM; in experiment [6], 4.33 nM. Also, the koff turned out to be 0.00061 s⁻¹ in experiment [7] and 0.00075 s⁻¹ in experiment [8]. Moreover, the kon was determined as 8.3e+06 M⁻¹ s⁻¹ in experiment [7] and 1.67e+06 M⁻¹ s⁻¹ in experiment [8].

B2: p75^NTR receptor immobilized on the SPR sensor surface (receptor)
chain: KEACPTGLYTHSGECCKACNLGEGVAQPCGANQTVCEPCLDSVTFSDVVSATEPCKPCTECVGLQSMSAPCVEADDAVCRCAYGYYQDETTGRCEACRVCEAGSGLVFSCQDKQNTVCEECPDGTYSDEANHVDPCLPCTVCEDTERQLRECTRWADAECEEIPGRWITRSTPPEGSDSTAPSTQEPEAPPEQDLIASTVAGVVTTVMGSSQPVVTRGTTDN
For the molecule B2, the Kd worked out at 1.33 nM in experiment [3], 2.6 nM in experiment [4], 5.06 nM in experiment [5] and 7.1 nM in experiment [6]. Besides, the koff in experiment [7] stood at 0.0111 s⁻¹. Besides, the kon in experiment [7] was 8.3e+06 M⁻¹ s⁻¹.
